US20150344570A1 (published 2015)

T1: FcγRIIb extracellular domain with C-terminal His tag (human, UniProt P31994 43-217)
T1 construct: extracellular domain; Soluble receptor expressed in FreeStyle293 cells, used as analyte in Biacore; also called FcgRIIb; 2b
T1 sequence (looked up): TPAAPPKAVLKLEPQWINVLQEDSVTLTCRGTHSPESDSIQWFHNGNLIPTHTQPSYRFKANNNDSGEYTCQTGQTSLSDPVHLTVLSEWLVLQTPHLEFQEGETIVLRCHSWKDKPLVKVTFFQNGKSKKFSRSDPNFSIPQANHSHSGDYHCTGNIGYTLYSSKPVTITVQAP


How the values were obtained:
[1] = molecular target: T2, FcγRIIIa extracellular domain with C-terminal His tag (human, UniProt P08637 17-208); test: SPR (Biacore); He/Con_3a divided by He/Con_2b (FcγRIIIa against FcγRIIb)
T2 construct: extracellular domain; also called FcgRIIIa; 3a
T2 sequence (P08637 17-208): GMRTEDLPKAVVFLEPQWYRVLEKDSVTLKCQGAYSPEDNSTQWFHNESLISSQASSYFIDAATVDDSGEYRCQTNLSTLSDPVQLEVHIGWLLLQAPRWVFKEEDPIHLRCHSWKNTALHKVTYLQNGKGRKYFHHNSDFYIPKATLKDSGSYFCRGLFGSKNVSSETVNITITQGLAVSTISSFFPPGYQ
Method: (§1) The heterodimerized antibodies He Abs in which one of the H chains was introduced with an alteration were assayed for their binding activities to each activating FcγR and inhibitory FcγR according to the method described in Example 4. […] The activating FcγRs in FIGS. 26, 27, 28, and 29 are FcγRIa, FcγRIIa (R), FcγRIIa (H), and FcγRIIIa, respectively.
(§2) Analysis of interaction between objective antibody and the FcγR was carried out using Biacore T100 (GE Healthcare). HBS-EP+ (GE Healthcare) was used as the running buffer, and the measurement temperature was set to 25° C. Chips produced by immobilizing the antigen peptide by the amine coupling method to a Series S Sencor Chip CM5 (GE Healthcare), or alternatively, chips produced by allowing preliminarily biotinylated antigen peptides to interact with and immobilize onto a Series S Sensor Chip SA (certified) (GE Healthcare) were used. Antibodies of interest were captured onto an antigen peptide-immobilized chip, and allowed to interact to each FcγR diluted with running buffer. To regenerate and repeatedly use the chip, the antibodies captured on the chip were washed off by reacting 10 mM glycine-HCl, pH 1.5.

[2] = molecular target: T1, FcγRIIb extracellular domain with …; test: SPR (Biacore), antibody captured on antigen peptide chip, FcγR as analyte; GpH7-A5/GpH7-B3/GpL16-k0 = 100
Method: as §1, §2

[3] = molecular target: T2, FcγRIIIa extracellular domain with …; test: as above
Method: as §1, §2

He_3a/2b (IIIa/IIb) [1] [ratio]	He/Con_2b (relative binding activity) [2]	He/Con_3a (relative binding activity) [3]	Binder
1.26	81.8 % of control	103 % of control	GpH7-A5/GpH7-B3 variant E333_13S/GpL16-k0 (antibody, human IgG1, kappa, Heterodimerized anti-glypican-3 IgG1; mutation in the GpH7-B3 chain only; also called He Ab) heavy 1: not shown heavy 2: not shown light: DIVMTQSPLSLPVTPGEPASISCQASESLVHSNRNTYLHWYLQKPGQSPQLLIYKVSNRFSGVPDRFSGSGSGTDFTLKISRVEAEDVGVYYCSQNTHVPPTFGQGTKVEIERTVAAPSVFIFPPSDEQLKSGTASVVCLLNNFYPREAKVQWKVDNALQSGNSQESVTEQDSKDSTYSLSSTLTLSKADYEKHKVYACEVTHQGLSSPVTKSFNRGEC
1.76	80.5 % of control	142 % of control	GpH7-A5/GpH7-B3 variant A330_06M/GpL16-k0 (antibody, human IgG1, kappa, Heterodimerized anti-glypican-3 IgG1; mutation in the GpH7-B3 chain only; also called He Ab) heavy 1: not shown heavy 2: not shown light: DIVMTQSPLSLPVTPGEPASISCQASESLVHSNRNTYLHWYLQKPGQSPQLLIYKVSNRFSGVPDRFSGSGSGTDFTLKISRVEAEDVGVYYCSQNTHVPPTFGQGTKVEIERTVAAPSVFIFPPSDEQLKSGTASVVCLLNNFYPREAKVQWKVDNALQSGNSQESVTEQDSKDSTYSLSSTLTLSKADYEKHKVYACEVTHQGLSSPVTKSFNRGEC
1.53	67.1 % of control	103 % of control	GpH7-A5/GpH7-B3 variant A330_07I/GpL16-k0 (antibody, human IgG1, kappa, Heterodimerized anti-glypican-3 IgG1; mutation in the GpH7-B3 chain only; also called He Ab) heavy 1: not shown heavy 2: not shown light: DIVMTQSPLSLPVTPGEPASISCQASESLVHSNRNTYLHWYLQKPGQSPQLLIYKVSNRFSGVPDRFSGSGSGTDFTLKISRVEAEDVGVYYCSQNTHVPPTFGQGTKVEIERTVAAPSVFIFPPSDEQLKSGTASVVCLLNNFYPREAKVQWKVDNALQSGNSQESVTEQDSKDSTYSLSSTLTLSKADYEKHKVYACEVTHQGLSSPVTKSFNRGEC
1.77	70.5 % of control	124 % of control	GpH7-A5/GpH7-B3 variant A330_08L/GpL16-k0 (antibody, human IgG1, kappa, Heterodimerized anti-glypican-3 IgG1; mutation in the GpH7-B3 chain only; also called He Ab) heavy 1: not shown heavy 2: not shown light: DIVMTQSPLSLPVTPGEPASISCQASESLVHSNRNTYLHWYLQKPGQSPQLLIYKVSNRFSGVPDRFSGSGSGTDFTLKISRVEAEDVGVYYCSQNTHVPPTFGQGTKVEIERTVAAPSVFIFPPSDEQLKSGTASVVCLLNNFYPREAKVQWKVDNALQSGNSQESVTEQDSKDSTYSLSSTLTLSKADYEKHKVYACEVTHQGLSSPVTKSFNRGEC
1.37	76.1 % of control	104 % of control	GpH7-A5/GpH7-B3 variant A330_20W/GpL16-k0 (antibody, human IgG1, kappa, Heterodimerized anti-glypican-3 IgG1; mutation in the GpH7-B3 chain only; also called He Ab) heavy 1: not shown heavy 2: not shown light: DIVMTQSPLSLPVTPGEPASISCQASESLVHSNRNTYLHWYLQKPGQSPQLLIYKVSNRFSGVPDRFSGSGSGTDFTLKISRVEAEDVGVYYCSQNTHVPPTFGQGTKVEIERTVAAPSVFIFPPSDEQLKSGTASVVCLLNNFYPREAKVQWKVDNALQSGNSQESVTEQDSKDSTYSLSSTLTLSKADYEKHKVYACEVTHQGLSSPVTKSFNRGEC

Further lines, the binder ahead of its results:

Binder	He_3a/2b (IIIa/IIb) [1] [ratio]	He/Con_2b (relative binding activity) [2]	He/Con_3a (relative binding activity) [3]
GpH7-A5/GpH7-B3 variant S298_02A/GpL16-k0 (antibody, human IgG1, kappa, Heterodimerized anti-glypican-3 IgG1; mutation in the GpH7-B3 chain only; also called He Ab) heavy 1: not shown heavy 2: not shown light: DIVMTQSPLSLPVTPGEPASISCQASESLVHSNRNTYLHWYLQKPGQSPQLLIYKVSNRFSGVPDRFSGSGSGTDFTLKISRVEAEDVGVYYCSQNTHVPPTFGQGTKVEIERTVAAPSVFIFPPSDEQLKSGTASVVCLLNNFYPREAKVQWKVDNALQSGNSQESVTEQDSKDSTYSLSSTLTLSKADYEKHKVYACEVTHQGLSSPVTKSFNRGEC	2.18	73.4 % of control	160 % of control
GpH7-A5/GpH7-B3 variant A330_03V/GpL16-k0 (antibody, human IgG1, kappa, Heterodimerized anti-glypican-3 IgG1; mutation in the GpH7-B3 chain only; also called He Ab) heavy 1: not shown heavy 2: not shown light: DIVMTQSPLSLPVTPGEPASISCQASESLVHSNRNTYLHWYLQKPGQSPQLLIYKVSNRFSGVPDRFSGSGSGTDFTLKISRVEAEDVGVYYCSQNTHVPPTFGQGTKVEIERTVAAPSVFIFPPSDEQLKSGTASVVCLLNNFYPREAKVQWKVDNALQSGNSQESVTEQDSKDSTYSLSSTLTLSKADYEKHKVYACEVTHQGLSSPVTKSFNRGEC	1.93	52.4 % of control	101 % of control
GpH7-A5/GpH7-B3 variant E333_01G/GpL16-k0 (antibody, human IgG1, kappa, Heterodimerized anti-glypican-3 IgG1; mutation in the GpH7-B3 chain only; also called He Ab) heavy 1: not shown heavy 2: not shown light: DIVMTQSPLSLPVTPGEPASISCQASESLVHSNRNTYLHWYLQKPGQSPQLLIYKVSNRFSGVPDRFSGSGSGTDFTLKISRVEAEDVGVYYCSQNTHVPPTFGQGTKVEIERTVAAPSVFIFPPSDEQLKSGTASVVCLLNNFYPREAKVQWKVDNALQSGNSQESVTEQDSKDSTYSLSSTLTLSKADYEKHKVYACEVTHQGLSSPVTKSFNRGEC	1.21	81.4 % of control	98.2 % of control
GpH7-A5/GpH7-B3 variant A327_11K/GpL16-k0 (antibody, human IgG1, kappa, Heterodimerized anti-glypican-3 IgG1; mutation in the GpH7-B3 chain only; also called He Ab) heavy 1: not shown heavy 2: not shown light: DIVMTQSPLSLPVTPGEPASISCQASESLVHSNRNTYLHWYLQKPGQSPQLLIYKVSNRFSGVPDRFSGSGSGTDFTLKISRVEAEDVGVYYCSQNTHVPPTFGQGTKVEIERTVAAPSVFIFPPSDEQLKSGTASVVCLLNNFYPREAKVQWKVDNALQSGNSQESVTEQDSKDSTYSLSSTLTLSKADYEKHKVYACEVTHQGLSSPVTKSFNRGEC	2.53	12.5 % of control	31.7 % of control
GpH7-A5/GpH7-B3 variant A330_10E/GpL16-k0 (antibody, human IgG1, kappa, Heterodimerized anti-glypican-3 IgG1; mutation in the GpH7-B3 chain only; also called He Ab) heavy 1: not shown heavy 2: not shown light: DIVMTQSPLSLPVTPGEPASISCQASESLVHSNRNTYLHWYLQKPGQSPQLLIYKVSNRFSGVPDRFSGSGSGTDFTLKISRVEAEDVGVYYCSQNTHVPPTFGQGTKVEIERTVAAPSVFIFPPSDEQLKSGTASVVCLLNNFYPREAKVQWKVDNALQSGNSQESVTEQDSKDSTYSLSSTLTLSKADYEKHKVYACEVTHQGLSSPVTKSFNRGEC	1.21	70.1 % of control	84.6 % of control
GpH7-A5/GpH7-B3 variant E333_02A/GpL16-k0 (antibody, human IgG1, kappa, Heterodimerized anti-glypican-3 IgG1; mutation in the GpH7-B3 chain only; also called He Ab) heavy 1: not shown heavy 2: not shown light: DIVMTQSPLSLPVTPGEPASISCQASESLVHSNRNTYLHWYLQKPGQSPQLLIYKVSNRFSGVPDRFSGSGSGTDFTLKISRVEAEDVGVYYCSQNTHVPPTFGQGTKVEIERTVAAPSVFIFPPSDEQLKSGTASVVCLLNNFYPREAKVQWKVDNALQSGNSQESVTEQDSKDSTYSLSSTLTLSKADYEKHKVYACEVTHQGLSSPVTKSFNRGEC	1.26	83.8 % of control	105 % of control
GpH7-A5/GpH7-B3 variant E333_16H/GpL16-k0 (antibody, human IgG1, kappa, Heterodimerized anti-glypican-3 IgG1; mutation in the GpH7-B3 chain only; also called He Ab) heavy 1: not shown heavy 2: not shown light: DIVMTQSPLSLPVTPGEPASISCQASESLVHSNRNTYLHWYLQKPGQSPQLLIYKVSNRFSGVPDRFSGSGSGTDFTLKISRVEAEDVGVYYCSQNTHVPPTFGQGTKVEIERTVAAPSVFIFPPSDEQLKSGTASVVCLLNNFYPREAKVQWKVDNALQSGNSQESVTEQDSKDSTYSLSSTLTLSKADYEKHKVYACEVTHQGLSSPVTKSFNRGEC	1.24	83.3 % of control	103 % of control
GpH7-A5/GpH7-B3 variant A330_04F/GpL16-k0 (antibody, human IgG1, kappa, Heterodimerized anti-glypican-3 IgG1; mutation in the GpH7-B3 chain only; also called He Ab) heavy 1: not shown heavy 2: not shown light: DIVMTQSPLSLPVTPGEPASISCQASESLVHSNRNTYLHWYLQKPGQSPQLLIYKVSNRFSGVPDRFSGSGSGTDFTLKISRVEAEDVGVYYCSQNTHVPPTFGQGTKVEIERTVAAPSVFIFPPSDEQLKSGTASVVCLLNNFYPREAKVQWKVDNALQSGNSQESVTEQDSKDSTYSLSSTLTLSKADYEKHKVYACEVTHQGLSSPVTKSFNRGEC	1.59	92.8 % of control	147 % of control
GpH7-A5/GpH7-B3 variant A330_15Y/GpL16-k0 (antibody, human IgG1, kappa, Heterodimerized anti-glypican-3 IgG1; mutation in the GpH7-B3 chain only; also called He Ab) heavy 1: not shown heavy 2: not shown light: DIVMTQSPLSLPVTPGEPASISCQASESLVHSNRNTYLHWYLQKPGQSPQLLIYKVSNRFSGVPDRFSGSGSGTDFTLKISRVEAEDVGVYYCSQNTHVPPTFGQGTKVEIERTVAAPSVFIFPPSDEQLKSGTASVVCLLNNFYPREAKVQWKVDNALQSGNSQESVTEQDSKDSTYSLSSTLTLSKADYEKHKVYACEVTHQGLSSPVTKSFNRGEC	1.32	95 % of control	125 % of control
